Laboratory results taken from the nanobody polyreactivity screen of Harvey et al. (2022).

Assay: yeast display, Sf9 membrane polyspecificity reagent, FACS + sequencing; frameworks hold sequencing errors
In short: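 In a synthetic yeast display library (Saccharomyces cerevisiae BJ5465), nanobody expression was induced with galactose for 36–48 hours. FACS gates were set low and high (top ~1%) using anti-HA fluorescence for expression and streptavidin fluorescence for binding of the Sf9 membrane reagent. Each polyreactivity label is drawn from the gate of origin.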

Sequence | polyreactivity (PSR sort gate)
QVQLVESVGGFVQAGGSLRLSCAASGFTFRIYAMGLYRKATVKERELVAGITWSVGSTYYADSVKGRFTISRDNAKNTVYLQMNSLKPEETAVYYCAVRRNQHVVQLYYWGQGTQGTVSS | low polyreactivity
QVQLVESGGGLVQAGGSLRLSCAASGSTFGKYAMGWYRQAPGKERELVATITVSGGNTNYADSVKGRFTISRDNAKNTVYLQMNSLKPEDTAVYYCNAGGRYHAPSGDYWGQGTQVTVSS | low polyreactivity
QVQLVESGGGLVQAGGSLRLSCAASGRIFSDYAMGWYRQAPGKERELVAVISWDGTNTYYADSVKGRFTISRDNAKNTVYLQMNSLKPEDTAVYYCAATGTSYYSAYDYWGQGTQVTVSS | low polyreactivity
QVQLQEIGGSLVQAGGSLRLSGAASGNILVLPPGQVSPGAERELDATITGGSITYYADSVKGRFTISRDNAKNTVYLQMNSLKPEDTAVYYCAAVSLRKSYGYNYWGQGTLVTVSS | high polyreactivity
QVQLVESGGGLVQAGGRLRLSCAASGSIFSKNVMGWYRQAPGKERELVAAISIGGRTYYADSVKGRFTISRDNAKNTVSLQLNSLKPEDTAVYYCNTRFAKRATVGRYDYWGQGTQVTVSS | high polyreactivity
QVQLVESGGGLVQAGGSLRLSCAASGITFWYYAMGWYRQEPGKERELVAAISSSGGRTTYADSVKGRFTISRDNAKNTVYLQMNSLKPEDTAVYYCNADRRRYQHRRGSSVYLYDYWGQGTQVTVSS | high polyreactivity
QVQLVESGGGLVQAGRSLRLSCAASGSIFGFYAMGCYRQAPGKERELVAASTVSDGTTYYADSVKGRFTISRDNAKNSFFFLMNSVKPEDTVVYYCAGDVFRQHEYYYWGQGTQVTVSS | low polyreactivity
QDHLVESGGGLVHAGGRLRLSCAASVRIFTAYAMGWYRQAPGTERELVPAISSGDSTYSADSVKGRFTISRDNAKNSVYLQMNSLKPVVTAVYSCATGVYPDFEYVSWGQGTQVTGSS | low polyreactivity
QVQLVESGGGLVQAGGSLRLSCAASGITFSRNVMGWYRQAPGKERELVAAISRSGGRTYYADSVKGRLTISRDNAKNTVYLQMNSLKPEDTAVYYCNRDIGGTSVLDDYWGQGTQVTVSS | low polyreactivity
QVQLVESVGGLVQAGGSLRLSCAASGSIFVPYAMGWYRQAPGKEREFVAAIYSGGGNTYYADSVKGRFTISRDNAKNTVYLQMNSLIPEDTAVYYCAAAYFYSSWSRYDYWGQGTQVTVSS | high polyreactivity
QVQLVESGGGLVQAGGSLRLSCAASGRTLRYYAMGWYRQAPGKERELVASISIGGSTFYADSVKGRFTISRDNAKNTVYLQMNSLKPEDTAVYYCAAENFWQTKEYDYWGQGTQVTVSS | low polyreactivity
QVQRVESGGGIDQAGGSLRLSCAASGLTFSIYAIGWYRQAPGKERDLVDAISWSGGSTYYADSVKGRFTISRDNAKNTVYLQMISLKPEVTAVYYCAARVYRPWWRYDYWGQGTQVSVSS | high polyreactivity
QVQLVESGGGLVQAGGSLRLSCAASGRILYGYALGWYRQAPGKERELVAAISWSGTRTYDADSVQGRFTISRDNAKNTVYLQMNSLKPEDTAVYYCAARTHVPAEYDYWGQGTQVTVSS | high polyreactivity
QVQLVESGAGLVQAGGSLRLSCAASGRIFGYYAMGWYRQAPGKERELVAAITRGGSTYYADSVKGRFTISRDNAKHTVYLQMNSLKPEDTAVYFCAANISGLVKYENDYWGQGTQLTVSS | low polyreactivity
QVQLVESGGGLVQAGGSLRLSCAASGSTFAGYVMGWSRQAPGKERELVAAISRSGGSTYYADSVKGRFTISRDNAKNTVYLQMNSLKPEDTAVYYCNARYNTQRYRFLVQGDYWGQGTQVTVSS | high polyreactivity
QVQLVESGGGLVQAGGSLRLSCAASGLILANYAMGWYRQAPGKERELVAAISSSGGSTYYADSVKGRFTISRDNAKNTVYLQMNSLKPEDTAVYYCAAYPLYRRRWTGDYWGQGTQVTVSS | high polyreactivity

Sequence | polyreactivity (PSR sort gate)
QVQLVESGGGLVQAGGSLRLSCAASGSIFRVYAMGWYRQSPGKERELVASIRSRGGSTYYADSVKGRFTISRDNAKNTVYLQMNSLKPEDTAVYYCGKSYWGGDEYWGQGTQVTVSS | low polyreactivity
QVQLVESGGGLVQAGGSLRLSCAATVLKFGKNPMGSYRQATGKERELVAVISWRGSSTYYADSVKGRFTISRVNAKNTVFLQMNSLKPEDTAVYYCTDVYVYVHYQPGYYWGQGTQVTVSS | low polyreactivity
QVQLVESGGGLVQAGGSLRLSCAASGRTFYYNAMGWYRQAPGKERELVARISTIGGNTFYADSVKGRFTISRDNAKNTVYLQMNSLKPEDTAVYYCATTGGPSWRKYDYWGQGTQVTVSS | high polyreactivity
QVQLVESGGGLVQAGGSLRLSCAASGRTFRRYAMGWYRQAPGKERELVAAITSGGDTYYADSVKGRFTISRDNAKNTVYLQMNSLKPEDTAVYYCNAASVTRRTGIRAVDFDYWGQGTQVTVSS | high polyreactivity
QGQLVESGGGLVQAGGSLRLSCAASGSIFGNAMGWYIQAPGKEREFVAAISSSGSSTYYADSVKGRFTISRDNAKNTVYLQMNSLKPEDTAVYYCAARPPRVSYEYWGQGTQVTVSS | high polyreactivity
QVQLVESGGGLVQARGSLRLSCAASGIIFYPNAMGWYRQAPGKERELVASIRSGGITTYADSVKGRFTISRDNAKNTVYLQMNSLKPEDTAVYDCATRSYYRYATFAYYYWGQGTQVTVSS | high polyreactivity
QVQLVESGGGLVQAGGSLRLSCAASGRIFIRYAMGWYRQAPGKERELVAAISRSGGSTYYADSVKGRITISRDNAKNTVYLQMNSLKPEDTAVYYCAAVSSSTWLEYYYWGQGTQVTVSS | high polyreactivity
QVQLVESGGGLVQAGGSLRLSCAASGRTSSTYDMGWYRQAPGKERELVADITWSGGSTYYADSVKGRFTISRDNAKNTVYLQMNRLKPEDTAVYYCAAPFVKFVGSLVYAGYDSWGQGTQVTVSS | low polyreactivity
EVQLVESGGGLVQAGGSLRLSCAASGSIFSFYAMGWYRQAPGKERELVAAISRSAGRTYYADSVKGRFTISRDNATNTVYLQRNSLKPEDTAVYYCNKASWYNGEMDYWGQGTQVTVSS | high polyreactivity
QVQLVESGGGLVQEGGSLRLSCAASGIIFRWYAMGWYRQAPGKERELVAAITSDGNTYYADSVKGRFTISRDNAKNTVYLQMNSLKPVDTAVYYCAARLSYYSRMNYWGQGTQVTVSS | high polyreactivity
QVQLVESGGGLVQAGGSLRLSCAASGFTFPEYTMGWYRQAPGKERELVAAISWSGGSTYYADSVKGRFTISRDNAKNSVYLQMNSLKPEDTAVYYCNWKRGYGYWGQGTQVTVSS | high polyreactivity
QVQLVESGGGLVQAGCSLRLSCAASGRNFRYYAMGLYRQAPGKERELVAAIDTGDTYYADSVKGRFTISRDNAKYTGYLQMNSLKPEDTAVYYSAAEGSTSLDDYWGQGTQVTVSS | high polyreactivity
QVQLVESGGGLVQAGASLRLSCAASVSIFDTNAMGWYRQAPGKERELVASISSGGGSTYYADSVKGRFTISRDNAKNTVYLQMNSLKPEDTAVYFCARRIGHGSRPYWLETWRYAYDYWGQGSQVTVSS | low polyreactivity
QLQLVESGGGLVQAGGSLRLSCAASGSTFGPYAMGWYRQAPGKDRELVASITRSGGDTYYADSVKGRFTISRDNAKNSVYLQMNSLKPEDTAVYYCNKASHANEFGYWGQGTQVTVSS | high polyreactivity
QVQLVESGGGLVQAGGSLRLSCAASGYISFGYAMGWYRQAPGKEREFVAAISVGGGTTYYADSVKGRFTISRDNAKNTVYLQMNSLKPEDTAVYYCAARSYSYAPRRGYWGQGTQVTVSS | high polyreactivity
QVQLVESGAGLVQAGGSLRLSCPASGYIFWWTALGWSRQQPGKERELVAGISWSGSTTYYADSVKGRFTISRDNAKNTVYLQMNSLNPEDTAVYYCNAADITLYDYDYWGQGTQVTVSS | low polyreactivity
